Assay [1] has as its target T1, human DKK1 antigen (Sino Biological, 10170-H08H) (human, UniProt O94907 32-266).
T1 construct: also called huDKK1; hDKK1
T1 sequence (looked up): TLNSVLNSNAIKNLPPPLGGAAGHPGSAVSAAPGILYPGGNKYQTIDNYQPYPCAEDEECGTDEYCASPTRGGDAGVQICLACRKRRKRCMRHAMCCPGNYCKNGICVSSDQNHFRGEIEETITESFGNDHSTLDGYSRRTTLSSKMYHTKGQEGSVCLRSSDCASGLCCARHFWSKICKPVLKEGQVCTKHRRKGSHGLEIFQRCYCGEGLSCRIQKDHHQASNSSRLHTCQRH
The assay can be described thus: competitive ELISA against LRP6 for DKK1. A general note: ELISA stands for enzyme-linked immunosorbent assay.

The target of assay [2] is T2, human DKK1 antigen (Sino Biological, 10170-H08H) (human, UniProt O94907 32-266).
T2 chain: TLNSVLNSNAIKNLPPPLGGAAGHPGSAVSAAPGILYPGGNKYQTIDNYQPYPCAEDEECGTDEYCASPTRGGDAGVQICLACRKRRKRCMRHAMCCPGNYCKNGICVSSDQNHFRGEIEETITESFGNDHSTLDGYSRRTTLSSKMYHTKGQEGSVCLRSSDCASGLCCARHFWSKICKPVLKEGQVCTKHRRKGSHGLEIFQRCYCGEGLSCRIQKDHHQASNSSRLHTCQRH
The assay can be described thus: ELISA blocking of DKK1-LRP6.

Assay [3] deals with T2, human DKK1 antigen (Sino Biological, …). The assay can be described thus: ELISA blocking of DKK1-LRP6.
The target is the same in assay [4]. Put plainly: ELISA binding.
Assay [5] has the same target. The assay can be described thus: ELISA blocking of DKK1-LRP6.

This note sets out measurements from patent publication US20250122271A1, “ANTI-DKK1 ANTIBODY, PHARMACEUTICAL COMPOSITION THEREOF, AND USE THEREOF” (SHANGHAI JUNSHI BIOSCIENCES CO., LTD., priority 2022, published 2025).

As usually defined, the IC50 is the concentration that gives 50% inhibition. Lower therefore signals higher potency. What is called EC50 is the concentration that produces a half-maximal response. Read a high EC50 as a less potent agent.

Where two headings read alike, the source gives them in different places.

B1: hybridoma antibody 11I18.4 (antibody, V domains shown)
VH: EVQLQQSGPELVKPGASVKIFCKTSGYTFTENTMHWVKQTHGKSLEWIGGINPHKGGTSYNQKFKGKATLTVDKSSSTACMELRSLTSEDSTVYYCARDWLGAMDYWGQGTSVTVSP
VL: ETTVTQSPASLSMAIGEKVTIRCITSTDIDDDMNWYQQKPGEPPKLLISEGNTLRPGVPSRFSSSGYGTDFVFTIENMLSEDVADYYCLQSDNLPYTFGGGTKLEIK
notes: Murine hybridoma antibody
In the case of B1, the binding result in assay [1] is on record as “binds”. The molecule further showed an IC50 in assay [2] of 0.459 µg/mL.

B2: chi-2 (antibody, V domains shown)
VH: EVQLQQSGPELVKPGASVKIFCKTSGYTFTENTMHWVKQTHGKSLEWIGGINPHKGGTSYNQKFKGKATLTVDKSSSTACMELRSLTSEDSTVYYCARDWLGAMDYWGQGTSVTVSP
VL: MSSAQFLGLLLLCFQGTRCDIQMTQTTSSLSASLGDRVTINCRASQDISNYLNWYQQKPDGTVKLLIYYKSRLHSGVPTRFSGSGSGTDFSLTISNLVQEDIATYFCQQVHTLPPTFGGGTKLEIK
As for B2, the IC50 in assay [3] came to 1.79 µg/mL.

B3: humanized antibody hu2 (antibody, V domains shown)
VH: EVQLLQSAAEVKRPGESLRISCKTSGYTFTEYTMHWVRQMPGKELEWMGVIDPSNGDTSYNQKFKGHVTISADKSSSTAYLQWSSLKASDAAMYYCSSTTGPWFASWGQGTLVTVSS
VL: DIQMTQSPSSLSASVGDRVTITCRASQDISNYLNWYQQKPGKAPKLLIYYKSRLHSGVPSRFSGSGSGTDFTLTISSLQPEDFATYYCQQVHTLPPTFGQGTKLEIKR
Regarding B3, in assay [4], the response was half-maximal at 0.01 µg/mL (EC50). The molecule further displayed a half-maximal inhibitory concentration (IC50) in assay [5] of 0.193 µg/mL.

B4: humanized antibody hu3 (antibody, V domains shown)
VH: EVQLLQSAAEVKRPGESLRISCKTSGYTFTEYTMHWVRQMPGKELEWMGVIDPSNGDTSYNQKFKGHVTISADKSSSTAYLQWSSLKASDAAMYYCSSTTGPWFASWGQGTLVTVSS
VL: EIVMTQSPPTLSLSPGERVTLSCRASQDISNYLNWYQQKPGQAPRLLIYYKSRLHSGIPARFSGSGSGTDFTLTISSLQPEDFAVYYCQQVHTLPPTFGQGTKLEIKR
Molecule B4 yielded an EC50 in assay [4] of 0.0138 µg/mL. The concentration for half-maximal inhibition (IC50) in assay [5] amounted to 0.169 µg/mL.

B5: hybridoma antibody 17F14.3 (antibody, V domains shown)
VH: QVQLQQPGAELVKPGASVKMSCKASGYTFTSYNMLWVKQTPGQGLEWIGVIFPGNGDTSYNPKFKGKAALTADKSSSTAYMQLSSLTSEDSAVYYCARDGYPSMDYWGQGTSVTVSS
VL: ETIVTQSPASLSVATGEKVTIRCITSTDIDDDMNWYQQKPGEPPKLLISEGNSLRPGVPSRFSSSGYGTDFVFTIENTLSEDVADYYCLQFNNMPLTFGAGTKLELK
notes: Murine hybridoma antibody
As for B5, the binding result in assay [1] is “binds”. Also, the IC50 in assay [2] was 0.529 µg/mL.

B6: BHQ-880 (antibody, V domains shown)
VH: QVQLVESGGGLVQPGGSLRLSCAASGFTFSSYWMSWVRQAPGKGLEWVSGISYSGSNTHYADSVKGRFTISRDNSKNTLYLQMNSLRAEDTAVYYCARMGIDLDYWGQGTLVTVSS
VL: DIALTQPASVSGSPGQSITISCTGTSSDVGGFNYVSWYQQHPGKAPKLMIHDGSNRPSGVSNRFSGSKSGNTASLTISGLQAEDEADYYCQSWDVSPITAVFGGGTKLTVLG
Molecule B6 registered an IC50 in assay [2] of 1.1 µg/mL.

B7: chi-22 (antibody, V domains shown)
VH: QVTLKESGPGILQPSQTLSLTCSFSGFSLSTSGMGVGWIRQPSGKGLEWLAHIWWDDVKRYNPALKSRLTISKDTSSSQVFLKIASVDTTDTASYYCSRIARSPTGFAYWGQGTL
VL: QIVLTQSPVIMSASPGEKVTMTCSASSSVSYMYWYQQKPGSSPRLLIYDTSNLASGVPVRFSGSGSGTSYSLTISRMEAEDAATYYCQQWSSYPPALTFGAGTKLELK
The molecule B7 came in with an IC50 in assay [3] of roughly 0.246 µg/mL.

B8: humanized antibody hu64 (antibody, V domains shown)
VH: QVQLVQSGAEVKKPGSSVKVSCKASGYTFTSYNMLWVRQAPGQGLEWMGVIFPGNGDTSYNPKFKGRVTLTADKSSSTAYMELSSLRSEDTAVYYCARDGYPSMDYWGQGTLVTVSS
VL: DTQLTQSPSFLSASVGDRVTITCITSTDIDDDMNWYQQKPGKAPKLLISEGNSLRPGVPSRFSSSGSGTEFTLTISSLQPEDFATYYCLQFNNMPLTFGQGTKLEIKR
The molecule B8 registered a concentration for a half-maximal effect (EC50) in assay [4] of 0.0222 µg/mL. For the same molecule, the midpoint of inhibition in assay [5], the IC50, lay at 0.176 µg/mL.

B9: humanized antibody hu52 (antibody, V domains shown)
VH: QVQLVQSGAEVKKPGASVKVSCKASGYTFTSYNMLWVRQAPGQRLEWMGVIFPGNGDTSYNPKFKGRVTLTADKSSSTAYMELSSLRSEDTAVYYCARDGYPSMDYWGQGTLVTVSS
VL: DTQLTQSPSFLSASVGDRVTITCITSTDIDDDMNWYQQKPGKAPKLLISEGNSLRPGVPSRFSSSGSGTEFTLTISSLQPEDFATYYCLQFNNMPLTFGQGTKLEIKR
In assay [4], B9 gave a 50% effective concentration (EC50) of 0.0238 µg/mL. This molecule also had an IC50 in assay [5] of 0.155 µg/mL.

B10: humanized antibody hu50 (antibody, V domains shown)
VH: QVQLVQSGAEVKKPGASVKVSCKASGYTFTSYNMLWVRQAPGQRLEWMGVIFPGNGDTSYNPKFKGRVTLTADKSSSTAYMELSSLRSEDTAVYYCARDGYPSMDYWGQGTLVTVSS
VL: DIQMTQSPSSVSASVGDRVTITCITSTDIDDDMNWYQQKPGKAPKLLISEGNSLRPGVPSRFSGSGSGTDFTLTISSLQPEDFATYYCLQFNNMPLTFGQGTKLEIKR
In the case of B10, the EC50 in assay [4] worked out at 0.0234 µg/mL. In assay [5], this molecule displayed an IC50 of 0.239 µg/mL.

B11: chi-29 (antibody, V domains shown)
VH: QVQLKQSGPGLVQPSQSLSITCTVSGFSLTAFDVHWVRQSPGKGLEWLGVIWIGGTTDYNGAFISRLSISKDNSKSQVFFKMNSLQAKDTAIYYCARKRGNYYNMDYWGQGTSVTVAS
VL: SQAVVTQESALTTSPGETVTLTCRSSTGTVTTTNYANWVQEKPDHLFTGLIGGTNNRAPGVPARFSGSLIGDKAALTITGAQTEDEAIYFCALWYSNHWVFGGGTKLTVL
B11 registered an IC50 in assay [3] of 1.43 µg/mL.

B12: hybridoma antibody 7M2.6 (antibody, V domains shown)
VH: EVQLQQSGPELVKPGASVRISCKTSGYTFTEYTMHWVKQSHGKSLEWIGVIDPSNGDTSYNQKFKGRATLTVDKSSSTAYMDLRSLTSEDSALYYCSSTTGPWFACWGQGTLVTVSA
VL: DIQMTQTTSSLSASLGDRVTINCRASQDISNYLNWYQQKPDGTVKLLIYYKSRLHSGVPTRFSGSGSGTDFSLTISNLVQEDIATYFCQQVHTLPPTFGGGTKLEIK
notes: Murine hybridoma antibody
For the molecule B12, the binding result in assay [1] is listed as “binds”. The molecule also yielded an IC50 in assay [2] of 0.892 µg/mL.

B13: hybridoma antibody 19O15.6 (antibody, V domains shown)
VH: QIQLVQSGPELKKPGETVKISCKASGYTFTNHGMNWVKQAPGKGLKWMGWINTNTGEPTYADDFKGRFAFSLETSASTAYLQINNLKNEDTATYFCARRGYGFPYYYTMDYWGQGTSVTVSS
VL: QAVVTQESALTTSPGETVTLTCRSSTGAVTTRNYANWVQEKADHLLTGLIGGTKNRAPGVPARFSGSLIGDKAALTITGAQTEDEAKYFCALWYSNRLVFGGGTKLTVL
notes: Murine hybridoma antibody
In the case of B13, the binding result in assay [1] was “binds”. The same molecule came in with a 50% inhibitory concentration (IC50) in assay [2] of roughly 10.1 µg/mL.

B14: hybridoma antibody 18J21.1 (antibody, V domains shown)
VH: QVQLKQSGPGLVQPSQSLSITCTVSGFSLTAFDVHWVRQSPGKGLEWLGVIWIGGTTDYNGAFISRLSISKDNSKSQVFFKMNSLQAKDTAIYYCARKRGNYYNMDYWGQGTSVTVAS
VL: QAVVTQESALTTSPGETVTLTCRSSTGTVTTTNYANWVQEKPDHLFTGLIGGTNNRAPGVPARFSGSLIGDKAALTITGAQTEDEAIYFCALWYSNHWVFGGGTKLTVL
notes: Murine hybridoma antibody
For B14, the binding result in assay [1] is “binds”.
